From the DeepSol protein solubility set

Experiment: soluble on expression in E. coli; label from the status in PepcDB or PDB records
With “MGSDKIHHHHHHMVQISETSSELIQLLRIENSAPEVLQILDHADSRYIRDLKVNVSNALVTAHISEKESALLALSIAANQKNNILISGFQKLSAEKGATIEEQNEAISCASLLAGNNVFYRFRHFQQKESYNTMQAKIKMNIMMKPVLGKEFFELISLAVSAVNGCEMCVNAHEHSVREMGATEERVWDAIRLAAVITSLDKVMS” the “soluble on expression in E. coli” value was “not soluble”.
In the case of “MSLDFEYVTGEEGLKKAIKRLENSPYLYLDTETTGDRIRLVQIGDEENTYVIDLYEIQDIEPLRKLINERGIVGHNLKFDLKYLYRYGIFPSATFDTMIASYLLGYERHSLNHIVSNLLGYSMDKSYQTSDWGASVLSDAQLKYAANDVIVLRELFPKMRDMLNELDAERGEELLKTRTAKIFDLKSPVAIVEMAFVREVAKLEINGFPVDVEELTNKLKAVERETQKRIQEFYIKYRVDPLSPKQLASLLTKKFKLNLPKTPKGNVSTDDKALTSYQDVEPVKLVLEIRKLKKIADKLKELKEHLKNGRVYPEFKQIGAVTGRMSSAHPNIQNIHRDMRGIFKAEEGNTFVISDFSQIELRIAAEYVKDPLMLDAFKKGKDMHRYTASVVLGKKEEEITKEERQLAKAINFGLIYGISAKGLAEYAKLGYGVEISLEEAQVLRERFFKNFKAFKEWHDRVKKELKEKGEVKGHTLLGRRFSANTFNDAVNYPIQGTGADLLKLAVLLFDANLQKKGIDAKLVNLVHDEIVVECEKEKAEEVKEILEKSMKTAGKIILKEVPVEVESVINERWTKEGHHHHHH”, the “soluble on expression in E. coli” value is reported as “soluble”.
In the case of “SLAQTQLIQSEKMSSLGQLIAGVAHEINNPVNFIYGNLRYVAEYAQDLLHLLEKYQKFLPVTPPELESELDNIDLEFIIQDLPKLLDSMKLGTGRIVEIVQSLKNFSRHDEAEMKAVNIHDGIDGTLMILHHRLKAAIRRPKIEIVKDYAKLPLIECYPGKLNQVFMNILANAIDALEEGMGNEEIPPPTGQITIRTEVLDNQWVVIRIADNGPGMKEEVIRRIYDPFFTTKDVGKGTGLGMAISYQIVVDKHGGMLKCRSQPGEGTEFWIQIPVNCALADAAEEG”, the “soluble on expression in E. coli” value is reported as “not soluble”.
With “MNIVEEHREKCTQCGQCLSVCPRYDDLGLLDLLYGYLEGTSEIEPDSLLSCLTCGLCADACPEALGIKMLISPARQKWVSEHGLTDRQLEHHHHHH” the “soluble on expression in E. coli” value was “not soluble”.
With “GSHMDASKIDQPDLAEVANASLDKKQVIGRISIPSVSLELPVLKSSTEKNLLSGAATVKENQVMGKGNYALAGHNMSKKGVLFSDIASLKKGDKIYLYDNENEYEYAVTGVSEVTPDKWEVVEDHGKDEITLITCVSVKDNSKRYVVAGDLVGTKAKK” the “soluble on expression in E. coli” value was “soluble”.
With “MGSDKIHHHHHHMTTVIAGVSGAIGGALARRYLSSYPDRSLIGLCRRPETAPDDLRNHSGVRLMAWDAEDEQRLDVAEFKAVLEASGPVYTVIYAGGLLHDGQMFPEKRLEDIDGRSMMRSYQVNCLGFVSLMQRLAPALRGKHFKRIAAVSAKVGSISDNQLGGWYAYRASKAALNMVVKNLSIELSRRYAPLACVSLHPGTTLSSLSQPFQQSLEQLTVHEPEQTASNLFSVLESLDARDNGRFISWDGSDLPW” the “soluble on expression in E. coli” value was “not soluble”.
For “MSLEQFNVWFTVSEVQGLVKSGGLADVAKALPQALKALHQQVAIALPAYRSVPGKEDAELVLETELTHWPHTQYRVLKRDLDGVPIYLIDCPAYFDRPALYAENNQAYADNGERFGFFSAACLDVLPKLGIQPDIIHANDWHTGLVPFLLKTRYRYDSFFEQVKSVLTVHNAIFKGIFSYHQLEVIPELNLSGMEFLQYGHDHVSMLRAGIAFADKVNAVSPNYAAELLTPLGAHGLVDDFVRRARDLHGIVNGCDYSEWNPRTDHYLPATYSDEPESMRKGKALCKTALQEELHLPVTDVPLFGMVCRLTHQKGFHYLLPILEQFLRNNVQVVIVGTGEPEVAARLNKIAHYHRAKFAFVETYSERLAHWVEAGSDFFLMPSEFEACGLNQIYSMAYGTLPIVREVGGLKDTVNDYDKFPERATGFGYQEPTPEALLITMQRALLFYLQQPEEMLKVQQRAMQQNFSWEESAQEYMKMYRLARFEGHHHHHH”, the “soluble on expression in E. coli” value was “soluble”.
For “MRLSFLTLQRRHALRDALRHKPAPRCRTQERTQSVQNGMPTRSVARLEHHHHHH”, the “soluble on expression in E. coli” value was “not soluble”.
With “MGSDKIHHHHHHMNTPFMLHQGTSPVILAFPHTGTEVPPAIWDRLDDNGRIFADTDWHIHTLYAGLLENATTVRATFHRYVIDANRDPAGVSLYPGQNTTGLVPETDFDGKPIWKTGAEPNEADIAHRLETFHAPYHAALAAEIERVKSIHGIAILYDCHSIRSHIPFLFEGKLPDFNIGTDMGKTCDPAIEKIAVEVTAAAQGYDSILNGRFKGGWTTRHYGKPQTGVHAIQMELAQSTHLQNEHPPFAYDTGKAERLRTHLKTILTRMEKFALDTK” the “soluble on expression in E. coli” value was “not soluble”.
In the case of “MGSDKIHHHHHHMGPVGYTTLDTAVVERRLGVERLGYRVVGEGYVYRHKYKAGGQRVSTLIGRPEPLDPARVLRVLSAGAYNVVLISPLHGEDDGGLASYIHNNFSAITAVDLQGYYRGYASVWTPPTARIGSLAHISSDDASDPPREPMANIIVYTRGEAGGEVLSPSGSLTIPPPPKLVEDPTGAGDIFTMVFAIMLFRGAPPGPAAEEAAAKTPEILESIRGDEGFQYSVPHSPSEAFWI”, the “soluble on expression in E. coli” value is reported as “not soluble”.
With “MSEQTVQVKTTGKILQSPCGPIIHGLEDVLIKSTSISDIDGEKGILWYRGYRIEELARLSTYEEVSYLILYGRLPTKRELEDYINRMKKYRELHPATVEVIRNLAKAHPMFALEAAVAAEGAYDEDNQKLIEALSVGRYKAEEKELAYRIAEKLVAKMPTIVAYHYRFSRGLEVVRPRDDLGHAANFLYMMFGREPDPLASRGIDLYLILHADHEVPASTFAAHVVASTLSDLYSSVAAAIAALKGPLHGGANEMAVRNYLEIGTPAKAKEIVEAATKPGGPKLMGVGHRVYKAYDPRAKIFKEFSRDYVAKFGDPQNLFAIASAIEQEVLSHPYFQQRKLYPNVDFWSGIAFYYMGIPYEYFTPIFAMSRVVGWVAHVLEYWENNRIFRPRACYIGPHDLQYIPLEQR” the “soluble on expression in E. coli” value was “soluble”.
In the case of “RKLATAAKVSAMGSLNDLFESVSDRLRDSGRLIVVDEAENLPLRALEIVRRLHDETGCGLVLSGMPRLVANLRGKHGELVQLYSRVSVALNLGESLPDDELFEIAKAALPDAVKHLLPDSVQALITVIGFNETLELVRLMGGTTYPLRQGYTKNSQSRVAYLEEIIGSEAAGRLVEAMAPCNLFIPRCETALYELRNRKIRSQFDRQTAGGTPAYEAVNDLALAHRLSDRHVWRILKQADKEAEQENLF”, the “soluble on expression in E. coli” value is reported as “not soluble”.
With “MSLTTLKCVMQWTWRKTPERTIEVHKKNVNALKLLLIGSPGREQSYTPRDKRSNMHFLKKLGDFQDLEHTVDALKDWHTREKADAVLGLGDMLGLPGATTVRDERFQKKWHDIFIKDAGLDIPWLMTLGDADSVLSPSSQIRYHYSVQQKNWHMPNDYYTVNFKFGANLTLANGMFEETAFNATVIAINTWDLFVGNPVANNMASWTNKLWWLSEQLYQATQKNSSWIIVMGHHPMLSTGTEGEQARLQNIDDLSKSRRSRGLESFLINTLFMHYQVDAYVSGHDHLMEYNSITDVDRNVTVEGHHHHHH” the “soluble on expression in E. coli” value was “not soluble”.
With “MDLKQYITIVPDFPKPGIMFKDITTLMDNGPAYKYATDQIVQYAREKQIEIVVGPEARGFIIGCPVAYALGVGFAPVRKEGKLPREVVRVEYGLEYGTDVLTMHKDAIKPGQRVLITDDLLATGGTMRATIDLVEQLGGVVAGLAFLIELTELGGRKKLEGYDILTLMQF” the “soluble on expression in E. coli” value was “soluble”.
With “MGSDKIHHHHHHMAAPDTPPDSPPPISAVEMPSGKDAGTENFPVGSVLLPARLRPHVARFYAFARAIDDIADSPDLDAAAKIDRLQGFEEAITGRDTTDPAYAKGHALRVSLEATGVPAIHGVELIAAFKQDAVKGRYATWAEMMDYCRLSAAPVGRYLIDLHGGSRAGYASSDALCVALQVINHLQDCQDDFRVLDRVYLPADWLAAEGASVSDLDRAACTPGLRRVLDRCLEGTRRLLDAARPLPGDIIDRRLGLEAAVIVSIAQTLTGRLARQDPLAQRVKLGKAATAFCAARACAAYLMVPGAYR” the “soluble on expression in E. coli” value was “not soluble”.
In the case of “QITGIETGFYDFDKLITGLHEDQLIVLAARPAMGKTALALNIAQNVATKSNKAVAVFSLEMGAESLVERMLSAEGTIINHHIRTGNLTVNEWQRLIYAQGQLAEAPIFIDDTAGVKITDIRARARRLSQETDGLGLIVIDYLQLIQGSRSDNRQQEVSEISRQLKIIAKELKVPVIALSQLSRGVEQRNDKRPIMSDL”, the “soluble on expression in E. coli” value is reported as “not soluble”.
For “MSLETILLNINISADKTSPKTLRKQLNKVLTSLDVNIQTSRKVELVTSEIVTNIVTHNNDNHTNITLKFGKCKNGYWLDIYDNGAEFDPLSGDIPELNDEFLLFESSRGLYLIRSQCDFIEYEYLNKIKNNRIHCVWYDENINAGPTILIIDDSEIELAIVSNLLSDQFSVLQASNGLDAISILDSHSIDIIISDLHMPTINGVDLYVYLQKHLDKIIPFIFLTSDTNEMTGLREDAYRIGADDVLTKPISQQMLVNAIERALKRNNEGHHHHHH”, the “soluble on expression in E. coli” value was “soluble”.
In the case of “MPENVTVIGAGLAGSEATWQLAKRGIHVDLYEMRPKKETPAHETGEFAELVCTNSMRSNQLSNAVGLLKEEMRHLDSLIMKAADMTQVPAGGALAVDRDSFSKYVTDTLKGMDNVTVHEEEIVKIPEDGITIIATGPLTSDALAKQIQAFSGTDSLHFFDAAAPIIAADSIDMDIVYKKSRYDRGEAAYLNCPMSKEQYEKFANELIKAETAQLHGFENSDVFEGCMPIEVMAARGAKTMLFGPLKPVGLEDPHTGETPYAVVQLRQDNAAASMYNIVGFQTHLKFGEQKRVFSMIPGLENARFVRYGKMHRNTYMASPNVLTASYEAKNRPGLFFAGQMTGVEGYVESAGSGLVAGINAAREALGKETVAFPKNTALGSMANYVTTTSAKHFQPMNASFALLPALEGKKIRKKRERHEKISERGLASLDAFKTEVLDLEHHHHHH”, the “soluble on expression in E. coli” value is reported as “soluble”.
In the case of “MKQWADDENLPMERYKNYQMIVPAFIIKDILDGKIPETFEDSKNIKMIEASWGEESYTKGHIPTSVHVNTDIIEPPPTWMLDNDDNLTKFALDYGLTKDDTVIVSSSTPMASYRLAVILRYIGVKDVRVLNGGTNSWLSAGYELEFISNPKLEHHHHHH”, the “soluble on expression in E. coli” value is reported as “not soluble”.
With “GIDPFTMLRPRLCTMKKGPSGYGFNLHSDKSKPGQFIRSVDPDSPAEASGLRAQDRIVEVNGVCMEGKQHGDVVSAIRAGGDETKLLVVDRETDEFFKKCRVIPSQEHLNGPLPVPFTNGEIQKENSREALAEAALESPRPALVRSASSDTSEELNSQDSPPKQDSTAPSSTSSSDPILDFNISLAMAKERAHQKRSSKRAPQMDWSKKNELFSNL” the “soluble on expression in E. coli” value was “soluble”.
In the case of “MSLRYSKLTMLIPCALLLSACTTVTPAYKDNGTRSGPCVEGGPDNVAQQFYDYRILHRSNDITALRPYLSDKLATLLSDASRDNNHRELLTNDPFSSRTTLPDSAHVASASTIPNRDARNIPLRVDLKQGDQGWQDEVLMIQEGQCWVIDDVRYLGGSVHATAGTLRQSIENREGHHHHHH”, the “soluble on expression in E. coli” value is reported as “soluble”.
For “MAHHHHHHMILPRYAYAHADMDQKQMQKLLLMGPGGAGKTCMRSIIFDNYLPRDALRLGITISLDQSQVHILRNLFLNLWDCGGQHRYVTEYLNRQKEYIFRYVGVMLFVFDINSMCRDSHGGIGGLGGVGGESSSATTDWKLPEMLEYFREAMRFIRQYSPKAKVFVLLHKIDLIHKDIREEIFQARKQEILNCIDSDNGMNIEFFGTSIWSDSLYLAYSSVVRSLVPHRDVLVEMMRGIAMACDAAEVALYERSTFLCLTHINRKAAADGSKALFLQGDGELRTTEVSETVKHFKLSCMNNTTSLGGLSITTETFTALLCPFTECTHVLVVSVDPKVNVELHRLNVNAARRRFEQFLDSDEPTACAMREVL”, the “soluble on expression in E. coli” value was “not soluble”.
